In the supplement of paper PMC10567573:

B1: CCDC6 (parent)
chain: FTPPTSLTRAGMSYYNSPGLHVQH

Variants of: B1
Test: protein stability index of a GFP-peptide fusion (GPS, HEK-293T) (PSI 1-6); higher = more stable
Conditions: c terminus: a fixed tail appended
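Further: lentivirally expressed fusions sorted by FACS into six bins by GFP to DsRed ratio, PSI derived from sequencing read proportions per bin multiplied by bin number.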

In order of falling protein stability index:
1. FTPLTSLTRAGMSYYNSPGLHVQH  4.29
2. DTPPTSLTRAGMSYYNSPGLHVQH  3.56
3. FTPYTSLTRAGMSYYNSPGLHVQH  3.21
4. FTPNTSLTRAGMSYYNSPGLHVQH  3.07
5. MTPPTSLTRAGMSYYNSPGLHVQH  3.01
6. FTPPTFLTRAGMSYYNSPGLHVQH  2.98
7. TTPPTSLTRAGMSYYNSPGLHVQH  2.94
8. HTPPTSLTRAGMSYYNSPGLHVQH  2.9
9. NTPPTSLTRAGMSYYNSPGLHVQH  2.88
10. ETPPTSLTRAGMSYYNSPGLHVQH  2.85
11. PTPPTSLTRAGMSYYNSPGLHVQH  2.82
12. ATPPTSLTRAGMSYYNSPGLHVQH  2.65
13. QTPPTSLTRAGMSYYNSPGLHVQH  2.64
14. FTPPTSCTRAGMSYYNSPGLHVQH  2.61
15. FTPPTSKTRAGMSYYNSPGLHVQH  2.59
16. GTPPTSLTRAGMSYYNSPGLHVQH  2.54
17. FTPVTSLTRAGMSYYNSPGLHVQH  2.5
18. KTPPTSLTRAGMSYYNSPGLHVQH  2.49
19. FTPQTSLTRAGMSYYNSPGLHVQH  2.48
20. FTPPTRLTRAGMSYYNSPGLHVQH  2.47
21. ITPPTSLTRAGMSYYNSPGLHVQH  2.46
22. FTPPTLLTRAGMSYYNSPGLHVQH  2.45
23. FTPPMSLTRAGMSYYNSPGLHVQH  2.42
24. VTPPTSLTRAGMSYYNSPGLHVQH  2.41
25. FTPPTSFTRAGMSYYNSPGLHVQH  2.4
26. FTTPTSLTRAGMSYYNSPGLHVQH  2.35
27. FTPCTSLTRAGMSYYNSPGLHVQH  2.3
28. FTPPTSMTRAGMSYYNSPGLHVQH  2.29
29. FTPPLSLTRAGMSYYNSPGLHVQH  2.29
30. FTPPESLTRAGMSYYNSPGLHVQH  2.29
31. FTPPTSHTRAGMSYYNSPGLHVQH  2.28
32. FTPPTWLTRAGMSYYNSPGLHVQH  2.27
33. FTPTTSLTRAGMSYYNSPGLHVQH  2.27
34. FTPDTSLTRAGMSYYNSPGLHVQH  2.23
35. FTPPTQLTRAGMSYYNSPGLHVQH  2.21
36. FTPPTSATRAGMSYYNSPGLHVQH  2.21
37. FTPPTILTRAGMSYYNSPGLHVQH  2.2
38. RTPPTSLTRAGMSYYNSPGLHVQH  2.19
39. FTPHTSLTRAGMSYYNSPGLHVQH  2.19
40. FTEPTSLTRAGMSYYNSPGLHVQH  2.16
41. FTRPTSLTRAGMSYYNSPGLHVQH  2.14
42. WTPPTSLTRAGMSYYNSPGLHVQH  2.14
43. FTPPTSETRAGMSYYNSPGLHVQH  2.12
44. FTDPTSLTRAGMSYYNSPGLHVQH  2.1
45. FTPPTCLTRAGMSYYNSPGLHVQH  2.1
46. FTPPTVLTRAGMSYYNSPGLHVQH  2.1
47. FTVPTSLTRAGMSYYNSPGLHVQH  2.08
48. FTGPTSLTRAGMSYYNSPGLHVQH  2.07
49. FTPPGSLTRAGMSYYNSPGLHVQH  2.07
50. FTPMTSLTRAGMSYYNSPGLHVQH  2.04
51. FTPPVSLTRAGMSYYNSPGLHVQH  2.01
52. STPPTSLTRAGMSYYNSPGLHVQH  2.01
53. FTPPTGLTRAGMSYYNSPGLHVQH  2
54. FTPPASLTRAGMSYYNSPGLHVQH  2
55. FTPETSLTRAGMSYYNSPGLHVQH  1.99
56. FTLPTSLTRAGMSYYNSPGLHVQH  1.98
57. FTPFTSLTRAGMSYYNSPGLHVQH  1.97
58. FTPPRSLTRAGMSYYNSPGLHVQH  1.96
59. FTFPTSLTRAGMSYYNSPGLHVQH  1.95
60. FTYPTSLTRAGMSYYNSPGLHVQH  1.93
61. FTPPTELTRAGMSYYNSPGLHVQH  1.91
62. YTPPTSLTRAGMSYYNSPGLHVQH  1.91
63. FTPPDSLTRAGMSYYNSPGLHVQH  1.89
64. LTPPTSLTRAGMSYYNSPGLHVQH  1.89
65. FTPPTYLTRAGMSYYNSPGLHVQH  1.84
66. FTPPTNLTRAGMSYYNSPGLHVQH  1.84
67. FTPPSSLTRAGMSYYNSPGLHVQH  1.84
68. FTPPISLTRAGMSYYNSPGLHVQH  1.84
69. FTPRTSLTRAGMSYYNSPGLHVQH  1.83
70. FTPPNSLTRAGMSYYNSPGLHVQH  1.81
71. FTHPTSLTRAGMSYYNSPGLHVQH  1.79
72. FTPPTDLTRAGMSYYNSPGLHVQH  1.79
73. FTPPCSLTRAGMSYYNSPGLHVQH  1.74
74. FTAPTSLTRAGMSYYNSPGLHVQH  1.73
75. FTPPTTLTRAGMSYYNSPGLHVQH  1.73
76. FTPPHSLTRAGMSYYNSPGLHVQH  1.72
77. FTPPFSLTRAGMSYYNSPGLHVQH  1.69
78. FTPPPSLTRAGMSYYNSPGLHVQH  1.68
79. FTPPTHLTRAGMSYYNSPGLHVQH  1.66
80. FTPPTSGTRAGMSYYNSPGLHVQH  1.66
81. FTPPTMLTRAGMSYYNSPGLHVQH  1.65
82. FTIPTSLTRAGMSYYNSPGLHVQH  1.63
83. FTPPTSDTRAGMSYYNSPGLHVQH  1.62
84. FTPPKSLTRAGMSYYNSPGLHVQH  1.54
85. FTPPQSLTRAGMSYYNSPGLHVQH  1.53
86. CTPPTSLTRAGMSYYNSPGLHVQH  1.52
87. FTPPTALTRAGMSYYNSPGLHVQH  1.51
88. FTPPTKLTRAGMSYYNSPGLHVQH  1.51
89. FTPITSLTRAGMSYYNSPGLHVQH  1.51
90. FTPSTSLTRAGMSYYNSPGLHVQH  1.42
91. FTPPTSITRAGMSYYNSPGLHVQH  1.41
92. FTWPTSLTRAGMSYYNSPGLHVQH  1.21
93. FTPATSLTRAGMSYYNSPGLHVQH  1.15
94. FTPPYSLTRAGMSYYNSPGLHVQH  1.01
